From patent US6599706B1, “Recombinant PR-3 and assays employing the same” (Chiron Corporation, priority 1994, dated 2003)

Legend:
[1] = Storage stability of active recombinant PR-3; type: physicochemical; details: 4° C.; phosphate buffer pH 7.0 with 0.1% Triton X-100, NaCl eluate
Protocol: The proPR-3 was purified as described above through the Mono-S-Sepharose step and the DPPI activation. At the end of the activation reaction, the PR-3 was diluted 3-fold using deionized water and loaded onto a Pharmacia Mono-S column, previously equilibrated in loading buffer B (10 mM sodium phosphate buffer, pH 7.0, containing 0.1% (v/v) Triton X-100). After washing the column with three bed volumes of loading buffer B, the column was eluted with a 20-minute, 0-0.8 M sodium chloride gradient at 1 ml/min flow rate. PR-3 eluted as the only major peak of protein in the gradient. PR-3 activity was measured across the column by diluting 10 μl of each fraction into 100 mM sodium phosphate buffer containing 10% acetonitrile and 0.5 mM Boc-Ala-ONp. The absorbance at 402 nm of each assay sample was measured after approximately 10 min. Fractions containing activated PR-3 were pooled and stored at 4° C. […] The active PR-3 was stable over 1 month at 4° C. under these conditions

[2] = Enzymatic activity of purified recombinant PR-3 on Boc-Ala-ONP; type: biochemical, human
Protocol: In order to generate therapeutic-grade PR-3, the Mono-S purified recombinant PR-3 (obtained as described in Example 16) was subjected to size-exclusion chromatography. 0.8 mg of protein from the Mono-S pool was concentrated to 2 mg/ml by Amicon YM10 ultrafiltration and loaded onto a S-300 HR column (1.6×60 cm. Pharmacia Biotechnology, Inc., NJ) and chromatographed with a mobile phase of PBS containing 0.04% Triton X-100. Fractions enriched in PR-3 were detected by assaying for enzymatic activity (Boc-Ala-ONP assay) and analyzing on SDS-PAGE with Coomassie blue staining. A single band of 28 kD was observed. The PR-3 eluted with a retention time correlating to an apparent molecular mass of 35 kD as compared to BSA and chymotrypsinogen A chromatographed in the same buffer. This process produced PR-3 that was ≧95% pure with an overall recovery of about 25% and a lipopolysaccharide content of ≦about 10 ng per mg of protein as measured using an Limulus Amoebocyte Lysate Assay (Associates of Cape Cod, Inc., Woods Hole, Mass.). The purified enzyme has a specific activity of approximately 30 units per mg (where a unit is defined as 1 micromole of product produced from cleavage of Boc-Ala-ONP permin. at 25° C., pH 7.5) and a Kcat of approximately 12 per second.

B1: PR-3: purified active recombinant human PR-3 serine protease produced from proPR-3 in Sf9 cells, activated with DPPI (protein)
chain: MAHRPPSPALASVLLALLLSGAARAAEIVGGHEAQPHSRPYMASLQMRGNPGSHFCGGTLIHPSFVLTAAHCLRDIPQRLVNVVLGAHNVRTQEPTQQHFSVAQVFLNNYDAENKLNDILLIQLSSPANLSASVATVQLPQQDQPVPHGTQCLAMGWGRVGAHDPPAQVLQELNVTVVTFFCRPHNICTFVPRRKAGICFGDSGGPLICDGIIQGIDSFVIWGCATRLFPDFFTRVALYVDWIRSTLRRVEAKGRP
stability on storage [1]: over 1 month
Kcat ([2]; Boc-Ala-ONP): approximately 12 per second
specific activity ([2]; unit = 1 micromole product per min at 25° C., pH 7.5): approximately 30 units per mg
